Patent US8691225B2, “Antibodies against the ectodomain of ErbB3 and uses thereof” (Merrimack Pharmaceuticals, Inc., priority 2007, dated 2014)

Tests used:
BSA = BSA (Bos taurus, UniProt P02769); experiment: binding specificity ELISA; design: species or system bovine; details: IgG2 isotype of Ab #6
Method: 96-well NUNC MAXISORB plates are coated by overnight incubation at room temperature with 50 μl/well of 5 μg/ml of individual proteins. The proteins are recombinant human EGFR ectodomain, BSA, recombinant human ErbB3 ectodomain and TGF-α. The next morning, plates are washed 3 times with […] of PBST (0.05% Tween-20) in the BIOTEK plate washer. The wells are blocked for 1 hr at room temperature with 2% BSA in PBS and washed again as before. […] All samples are run in duplicate and incubated for 2 hrs at 4° C. on a plate shaker. The plates are washed again as before. 50 μl of human IgG-Fc detection antibody (HRP conjugated, Bethyl Laboratories, Inc; 1:75000 dilution in 2% BSA, PBST) is added and the plates are incubated for 1 hr at room temperature. The plates are washed again as before. 50 μL of SUPERSIGNAL ELISA Pico substrate is added and the plate is read on the FUSION plate reader (Packard/Perkin Elmer). The data is analyzed using the EXCEL program. Duplicate samples are averaged and the error bars represent the standard deviation between the two replicates.

[1] = system: three different xenografts; experiment: VEGF secretion in xenografts in vivo
Text: Inhibition of VEGF correlates with inhibition of ErbB3 phosphorylation (FIG. 24C). […] Inhibition of VEGF secretion is also known in the art to correlate with inhibition of tumor induced angiogenesis, a facilitator of tumor growth.

[2] = PK analyses of serum and intra-tumoral levels from xenograft studies; assay type: in vivo, mouse; details: serum from animals of the xenograft studies
Text: The data (obtained using the methods described above or minor variations thereof) from three different models derived from human tumor cell lines, AdrR (ovarian), Du145 (prostate) and OvCAR8 (ovarian) data are shown in FIGS. 17A-C and Colo357 (pancreatic) xenograft study data are shown in FIG. 17D.

[3] = system: phosphorylated ErbB3 (pErbB3) in AdrR ovarian xenografts; experiment: ErbB3 phosphorylation in AdrR ovarian xenografts in vivo; design: species or system mouse; details: pErbB3 in ng/mg of total protein
Method: The samples are pulverized substantially as described in Example 5 supra, with respect to FIG. 8. The BCA assay is performed substantially as set forth in the Materials and Methods section supra, and the ELISA assay is performed substantially as described in Example 5 supra with respect to FIG. 8.

[4] = system: HB-EGF binding to AdrR cells; experiment: biotinylated HB-EGF binding to AdrR cells by FACS; assay type: cell-based, human; details: 12.5 μM antibodies, 200 nM HB-EGF
Method: After 30 minutes, 50 μl of 400 nM biotinylated HB-EGF is added to the cells and incubated for another 30 minutes on ice. This yields a final concentration of 12.5 μM antibodies and 200 nM HB-EGF. Cells are then washed twice with 500 μl BD stain buffer and incubated with 100 μl of a 1:200 dilution of streptavidin-PE (PE=phycoerythrin) (Invitrogen) in BD stain buffer for 45 minutes. Finally, cells are washed twice, resuspended in 300 μl of BD stain buffer and analyzed in a FACSCALIBUR flow cytometer. As a positive control, 1×10^5 AdrR cells are incubated with 200 nM HB-EGF for 30 minutes on ice, washed twice and incubated with a 1:200 dilution of streptavidin-PE for 45 minutes. To assess background staining from the streptavidin-PE conjugate, cells are incubated with 100 μl of a 1:200 dilution of streptavidin-PE only for 45 minutes.

[5] = target: T1, ErbB3 receptors on MALME-3M cells (Homo sapiens, UniProt P21860); experiment: downregulation of ErbB3 receptors on MALME-3M cells by FACS; assay type: cell-based; details: 100 nM
T1 construct: ErbB3 expressed on MALME-3M melanoma cells; host or cells: MALME-3M melanoma cells
Method: MALME-3M cells are trypsinized from a 15 cm dish and washed once with RPMI+10% FBS. Cell pellets are resuspended at a density of 1×10^6 cells per ml. Two aliquots of 2×10^5 cells are added to separate wells in a 12-well tissue culture plate and each resuspended in a final volume of 800 ul RPMI+10% FBS.
Cells are washed twice with 1 ml BD stain buffer and incubated with 100 ul of a 1:500 dilution of Alexa 647-labeled goat anti-human Alexa 647 for 45 minutes on ice. Cells are then washed and resuspended in 300 ul BD stain buffer+0.5 ug/ml propidium iodide. Analysis of 10,000 cells is done in a FACSCALIBUR flow cytometer using the FL4 channel.

[6] = system: HGF induced ErbB3 phosphorylation in AdrR cells; experiment: HGF induced ErbB3 phosphorylation in AdrR cells; assay type: cell-based, human
Method: Various ligands are tested for inducement of ErBb3 phosphorylation. At least three ligands, HRG, BTC, and HGF, are able to stimulate ErbB3 induced phosphorylation in AdrR cells, while EGF can not. […] Further, as known in the art (see, e.g., Wallenius et al. (2000) Am J Pathol. 156 (3):821-9), enhanced HGF signaling has been reported in various epithelial and non-epithelial tumors.
c-MET-ErbB3 interactions also occur in AdrR cells carrying the wild type EGFR and is not dependent on amplified c-MET.

AdrR (ovarian) xenograft = experiment: xenograft tumor growth in nude mice; assay type: in vivo, mouse; details: 300 ug every three days (Q3d); p<0.05
Method: (§1) For example, T-cell deficient nu/nu mice (3-4 week old female mice originated at NIH; outbred; albino background) are purchased from Charles River Labs (Wilmington, Mass.) for xenograft studies. AdrR cells for implantation are grown in culture (RPMI media, 10% FBS, L-glutamine and antibiotics, 37° C., 5% CO2) to about 85% confluency before harvesting. Cells are kept on ice until implantation. Mice are implanted via subcutaneous injection with 100 μl AdrR cells (6×10^6 cells in PBS) on the right flank and allowed to recover while being monitored for initial tumor growth.
(§2) Tumors are measured (length by width) by digital caliper and the mice are dosed with IgG2a (Sigma, M7769-5MG) by intravenous injection.
(§3) Final tumor measurements (L×W) are taken, the mice are euthanized by CO2 asphyxiation and tumors are excised, snap frozen in liquid nitrogen, and are stored at −80° C. (for biochemical analysis). Final tumor measurements are analyzed and graphed by tumor area and tumor volume, as described in Burtrum et al., supra. The data are also analyzed by “normalized” and “non-normalized” means for both tumor volume and tumor area. For the “normalization” of the data, at each time point of measurement, each tumor in each group is divided by the initial tumor size determined by caliper measurement.

[7] = system: OvCAR8 (ovarian) xenograft; experiment: xenograft tumor growth in nude mice; assay type: in vivo, mouse
Method: as §1, §2, §3

[8] = system: Colo357 (pancreatic) xenograft; experiment: xenograft tumor growth in nude mice; assay type: in vivo, mouse
[9] = 300 ug every three days (Q3d), p<0.05

BSA, sequence (P02769 25-607): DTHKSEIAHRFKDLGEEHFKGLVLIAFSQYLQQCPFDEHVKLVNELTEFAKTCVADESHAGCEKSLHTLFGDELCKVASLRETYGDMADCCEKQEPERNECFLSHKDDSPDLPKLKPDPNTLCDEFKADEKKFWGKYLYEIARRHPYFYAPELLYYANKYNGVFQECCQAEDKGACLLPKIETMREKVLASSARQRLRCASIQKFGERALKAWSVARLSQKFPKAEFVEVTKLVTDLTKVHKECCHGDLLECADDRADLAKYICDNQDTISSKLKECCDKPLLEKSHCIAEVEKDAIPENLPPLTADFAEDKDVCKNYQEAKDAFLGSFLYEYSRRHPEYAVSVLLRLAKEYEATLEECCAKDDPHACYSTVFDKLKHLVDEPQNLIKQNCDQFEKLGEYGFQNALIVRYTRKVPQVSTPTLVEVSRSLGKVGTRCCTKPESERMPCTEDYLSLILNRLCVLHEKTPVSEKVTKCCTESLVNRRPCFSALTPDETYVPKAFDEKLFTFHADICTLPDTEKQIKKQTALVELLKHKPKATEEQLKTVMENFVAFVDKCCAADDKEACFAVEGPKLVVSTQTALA

B1: Ab #6: human anti-ErbB3 antibody from Fab-phage library, CDRs SEQ ID NOs:7-12; used as IgG1 and IgG2 isotypes; in phase I trials as MM-121 (antibody, V domains shown)
VH: EVQLLESGGGLVQPGGSLRLSCAASGFTFSHYVMAWVRQAPGKGLEWVSSISSSGGWTLYADSVKGRFTISRDNSKNTLYLQMNSLRAEDTAVYYCTRGLKMATIFDYWGQGTLVTVSS
VL: QSALTQPASVSGSPGQSITISCTGTSSDVGSYNVVSWYQQHPGKAPKLIIYEVSQRPSGVSNRFSGSKSGNTASLTISGLQTEDEADYYCCSYAGSSIFVIFGGGTKVTVL
binding in ELISA (BSA): did not show any appreciable binding
inhibition of VEGF secretion in vivo [1]: inhibiting VEGF secretion in three different xenografts, the highest being in COLO-357 xenograft
serum retention [2]: dose-dependent increase in the serum retention
inhibition of ErbB3 phosphorylation in vivo [3]: significantly inhibited ErbB3 phosphorylation
inhibition of HB-EGF binding to AdrR cells [4]: does not inhibit this binding
downregulation of ErbB3 on MALME-3M cells ([5]; IgG1 isotype): about 62%
downregulation of ErbB3 on MALME-3M cells ([5]; IgG2 isotype): about 66%
inhibition of HGF induced ErbB3 phosphorylation ([6]; AdrR cells): inhibits HGF induced ErbB3 phosphorylation
IC50 ([6]; HGF induced ErbB3 phosphorylation in AdrR cells (FIG. 28)): 244 pM
inhibition of tumor growth (AdrR (ovarian) xenograft): significant inhibition of tumor growth
inhibition of tumor growth [7, 9]: significant inhibition of tumor growth
inhibition of tumor growth ([7]; 1500 ug Q3d versus 600 ug): did not result in increased efficacy
inhibition of tumor growth [8, 9]: significant inhibition of tumor growth
inhibition of tumor growth ([8]; 600 ug Q3d versus 300 ug): further elevated
inhibition of tumor growth ([8]; 1500 ug Q3d versus 600 ug): did not result in increased efficacy
